# Substitutions are numbered along the chain they refer to.
# B1: oligo d(T)55 (ssDNA)
# DNA: TTTTTTTTTTTTTTTTTTTTTTTTTTTTTTTTTTTTTTTTTTTTTTTTTTTTTTT
# Experiments:
# hPIF1HD V258L = molecular target: T1, hPIF1HD V258L (Homo sapiens, UniProt Q9H611 206-620, V258L); assay: EMSA; 5 mM AMP-PNP, 5.5 mM MgCl2; no inhibitor; 20 mM HEPES-NaOH pH 7.5, 20 mM NaCl, 5.5 mM MgCl2, 5 mM AMP-PNP, 1 mM DTT, 0.1 mg/ml BSA; 0.25 nM DNA; binding temperature not stated explicitly (helicase assay conditions 37 C); 5% PAGE, 0.25x TBE; details: protein: recombinant; tags: N-terminal His6 removed; GSRM cloning residues remain; label: 5'-32P; single strand
# T1 sequence: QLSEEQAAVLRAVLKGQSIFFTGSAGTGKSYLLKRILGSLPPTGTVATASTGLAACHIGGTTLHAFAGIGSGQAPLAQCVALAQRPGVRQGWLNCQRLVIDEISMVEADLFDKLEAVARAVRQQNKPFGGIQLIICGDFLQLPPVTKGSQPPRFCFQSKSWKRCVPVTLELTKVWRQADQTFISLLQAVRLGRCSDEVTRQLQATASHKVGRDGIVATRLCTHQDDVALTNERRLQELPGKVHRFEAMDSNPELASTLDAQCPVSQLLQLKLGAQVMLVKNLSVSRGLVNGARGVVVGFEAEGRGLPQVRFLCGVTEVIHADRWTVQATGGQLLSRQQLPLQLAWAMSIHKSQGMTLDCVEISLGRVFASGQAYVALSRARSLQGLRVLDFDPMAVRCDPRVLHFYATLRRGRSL
# hPIF1HD V258A = molecular target: T2, hPIF1HD V258A (Homo sapiens, UniProt Q9H611 206-620, V258A); assay: as above; details: protein: recombinant; tags: N-terminal His6 removed; GSRM cloning residues remain; label: 5'-32P; single strand
# T2 sequence: T1 sequence with L53A
binder,measurement,setting,value
B1,binding signal,hPIF1HD V258L,~1 fold vs wild type (near equivalent)
same,binding signal,hPIF1HD V258A,~2 fold reduced vs wild type

# Reference: paper PMC11551755, “Structure-based discovery of first inhibitors targeting the helicase activity of human PIF1” (Nucleic Acids Research, 2024)
